Measured values: publication PMC7202667, “UNBRANCHED3 Expression and Inflorescence Development is Mediated by UNBRANCHED2 and the Distal Enhancer, KRN4, in Maize”

T1: UB2 (UNBRANCHED2), GST fusion (Zea mays, UniProt A0A804LTB0 =M+82-402, internal_change)
T1 sequence: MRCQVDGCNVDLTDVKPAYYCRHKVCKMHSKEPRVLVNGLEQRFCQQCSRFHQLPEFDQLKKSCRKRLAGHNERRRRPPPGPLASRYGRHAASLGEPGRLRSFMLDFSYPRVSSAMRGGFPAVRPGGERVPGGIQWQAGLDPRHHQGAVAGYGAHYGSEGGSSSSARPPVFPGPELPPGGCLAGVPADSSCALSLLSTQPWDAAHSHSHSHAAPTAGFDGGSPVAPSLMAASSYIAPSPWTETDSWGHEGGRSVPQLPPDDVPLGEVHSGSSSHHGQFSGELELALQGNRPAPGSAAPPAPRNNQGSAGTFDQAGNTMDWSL

B1: pUB3-P1 probe (EPUB3) (dsDNA)
DNA 1: GCCGAGGGCTTTTTGTAGACGCCAGGTACTTGCGCTTGTGGCGGCGAGCCGAGCG
DNA 2: CGCTCGGCTCGCCGCCACAAGCGCAAGTACCTGGCGTCTACAAAAAGCCCTCGGC
B2: KRN4-P4 probe (EP4) (dsDNA)
DNA 1: GCGTGTTGCCTACTTGCACTAGAGAGTACGTGAGGCAAACCAAATGTTTTCTAGCGAAC
DNA 2: GTTCGCTAGAAAACATTTGGTTTGCCTCACGTACTCTCTAGTGCAAGTAGGCAACACGC

Molecular target: T1, UB2 (UNBRANCHED2), GST fusion
Test: EMSA; poly(dI-dC), 5 mM MgCl2; EMSA: 10 mM Tris pH 7.5, 50 mM KCl, 1 mM DTT, 5 mM MgCl2, 2.5% glycerol, poly(dI-dC), 0.05% NP-40; 20-40 ng protein, probe 10 fM (so in the source); room temperature
Details: protein: recombinant; tags: N-GST (pGEX-4T-1); label: 5'-biotin; blunt

Row | Binder | binding result
1 | B1 | binds
2 | B2 | binds
